Measured values: publication PMC314469, “Protein Interaction Networks by Proteome Peptide Scanning” (PLoS Biology, 2004)

Molecular target: Sho1 SH3 (SHO1_YEAST), P40073
Assay: SPOT array

Chain of Sho1 SH3 (SHO1_YEAST), P40073 (P40073 295-366): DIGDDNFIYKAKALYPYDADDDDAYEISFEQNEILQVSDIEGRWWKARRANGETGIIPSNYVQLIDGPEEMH

B1: 301-314 ubiquitin carboxyl-terminal hydrolase (peptide)
chain: DRPPDVPRKIIVGR
normalised SPOT signal, Boehringer light units (BLU); mean over the file's lines of this peptide: 477

B2: 26-39 Hypothetical ORF (peptide)
chain: ASLPVGPRKNGMNV
normalised SPOT signal, Boehringer light units (BLU); mean over the file's lines of this peptide: 215

B3: 502-515 Ubiquitin-specific protease (peptide)
chain: WKPPDLPIRLRKRP
normalised SPOT signal, Boehringer light units (BLU); mean over the file's lines of this peptide: 3660

B4: 139-152 Hypothetical ORF (peptide)
chain: DSLPFAPLRKVYEL
normalised SPOT signal, Boehringer light units (BLU); mean over the file's lines of this peptide: 96.8

B5: 65-78 origin recognition complex subunit 2 (peptide)
chain: ALKPKTPSKAPRKR
normalised SPOT signal, Boehringer light units (BLU); mean over the file's lines of this peptide: 830

B6: 490-503 Amino acid permease (peptide)
chain: DSLPKLPFRSWGQP
normalised SPOT signal, Boehringer light units (BLU); mean over the file's lines of this peptide: 333

B7: 149-162 Hypothetical ORF (peptide)
chain: DERPFRPKRTSRSA
normalised SPOT signal, Boehringer light units (BLU); mean over the file's lines of this peptide: 183

B8: 36-49 neutral trehalase (peptide)
chain: YGPPTDPRKQKQAK
normalised SPOT signal, Boehringer light units (BLU); mean over the file's lines of this peptide: 198

B9: 587-600 Protein Kinase C (peptide)
chain: APLPPQPRKHDKTP
normalised SPOT signal, Boehringer light units (BLU); mean over the file's lines of this peptide: 152

B10: 216-229 " first enzyme in dityrosine synthesis in the outer layer of the spore wall pathway converting L-tyrosine to N-formyl-L- (peptide)
chain: SILPAFPSKSSNEQ
normalised SPOT signal, Boehringer light units (BLU); mean over the file's lines of this peptide: 73.6

B11: 1313-1326 component of the mitotic spindle (peptide)
chain: DDTPSIPSKISSKS
normalised SPOT signal, Boehringer light units (BLU); mean over the file's lines of this peptide: 207

B12: 382-395 Transcription factor (fork head domain) (peptide)
chain: DPLPYSPLKLYDQK
normalised SPOT signal, Boehringer light units (BLU); mean over the file's lines of this peptide: 144

B13: 174-187 gamma subunit of translational initiation factor eIF-2 (peptide)
chain: SQRPGSPGRYKLVR
normalised SPOT signal, Boehringer light units (BLU); mean over the file's lines of this peptide: 178

B14: 510-523 cytochrome P450 lanosterol 14a-demethylase (peptide)
chain: VTLPTGPAKIIWEK
normalised SPOT signal, Boehringer light units (BLU); mean over the file's lines of this peptide: 136

B15: 340-353 Triacetylfusarinine C transporter (peptide)
chain: ALVPFAPFKLLKDR
normalised SPOT signal, Boehringer light units (BLU); mean over the file's lines of this peptide: 129

B16: 805-818 " contains 3 SH3 domains, interacts with Bee1p" (peptide)
chain: DLQPLEPKKAAAST
normalised SPOT signal, Boehringer light units (BLU); mean over the file's lines of this peptide: 220

B17: 151-164 similar to ubiquitin activating enzyme (E1) (peptide)
chain: YMQPIIPGKTESFE
normalised SPOT signal, Boehringer light units (BLU); mean over the file's lines of this peptide: 165

B18: 7-20 11-kDa nonhistone chromosomal protein (peptide)
chain: AKQPKEPKKRTTRR
normalised SPOT signal, Boehringer light units (BLU); mean over the file's lines of this peptide: 103

B19: 311-324 3-phosphoglycerate dehydrogenase (peptide)
chain: DVYPHEPAKNGEGS
normalised SPOT signal, Boehringer light units (BLU); mean over the file's lines of this peptide: 132

B20: 727-740 Hypothetical ORF (peptide)
chain: APTPPAPSRSEKLH
normalised SPOT signal, Boehringer light units (BLU); mean over the file's lines of this peptide: 258

B21: 364-377 " mRNA cap-binding protein (eIF-4F), 150K subunit , highly homologous to Tif4632p, homologs of mammalian p220" (peptide)
chain: ATTPAIPTKSDEAE
normalised SPOT signal, Boehringer light units (BLU); mean over the file's lines of this peptide: 169

B22: 585-598 protein kinase domain (peptide)
chain: ATRPSSPMRHKSIS
normalised SPOT signal, Boehringer light units (BLU); mean over the file's lines of this peptide: 401

B23: 95-108 Translation initiation factor eIF-2B epsilon subunit (peptide)
chain: WNLPWSPFKITTIM
normalised SPOT signal, Boehringer light units (BLU); mean over the file's lines of this peptide: 1240

B24: 345-358 Product of gene unknown (peptide)
chain: ARDPILPYRLVKDR
normalised SPOT signal, Boehringer light units (BLU); mean over the file's lines of this peptide: 118

B25: 446-459 Actin binding protein (peptide)
chain: AAQPPLPSRNVASG
normalised SPOT signal, Boehringer light units (BLU); mean over the file's lines of this peptide: 81.6

B26: 95-108 Product of gene unknown (peptide)
chain: VVIPPVPSRYSDER
normalised SPOT signal, Boehringer light units (BLU); mean over the file's lines of this peptide: 58

B27: 237-250 Hypothetical ORF (peptide)
chain: DELPSPPLRMVHID
normalised SPOT signal, Boehringer light units (BLU); mean over the file's lines of this peptide: 224

B28: 243-256 Product of gene unknown (peptide)
chain: YQYPQTPSKVDISI
normalised SPOT signal, Boehringer light units (BLU); mean over the file's lines of this peptide: 196

B29: 146-159 (putative) involved in cell wall biogenesis (peptide)
chain: VVSPSHPFKQLQKI
normalised SPOT signal, Boehringer light units (BLU); mean over the file's lines of this peptide: 150

B30: 122-135 Hypothetical ORF (peptide)
chain: DVLPAGPVRSLEGA
normalised SPOT signal, Boehringer light units (BLU); mean over the file's lines of this peptide: 115

B31: 849-862 " contains 3 SH3 domains, interacts with Bee1p" (peptide)
chain: APAPLDPFKTGGNN
normalised SPOT signal, Boehringer light units (BLU); mean over the file's lines of this peptide: 681

B32: 17-30 Hypothetical ORF (peptide)
chain: WSYPYEPLRVLQVG
normalised SPOT signal, Boehringer light units (BLU); mean over the file's lines of this peptide: 898

B33: 51-64 Involved in protecting the cell against bleomycin damage (peptide)
chain: DGRPHSPLRARSAT
normalised SPOT signal, Boehringer light units (BLU); mean over the file's lines of this peptide: 37.1

B34: 269-282 Hypothetical ORF (peptide)
chain: AAWPLDPARERWTR
normalised SPOT signal, Boehringer light units (BLU); mean over the file's lines of this peptide: 137

B35: 1404-1417 Type 1 membrane protein with EF hand motif (peptide)
chain: YSNPQTPLRSLAGL
normalised SPOT signal, Boehringer light units (BLU); mean over the file's lines of this peptide: 217

B36: 181-194 integral membrane protein (peptide)
chain: VTVPKLPFKLAVNK
normalised SPOT signal, Boehringer light units (BLU); mean over the file's lines of this peptide: 129

B37: 158-171 homologous to mouse and human Tsg101 tumor susceptibility genes (peptide)
chain: DQAPSLPPKPNTQL
normalised SPOT signal, Boehringer light units (BLU); mean over the file's lines of this peptide: 176

B38: 330-343 Hypothetical ORF (peptide)
chain: AKSPLLPFKLLSDR
normalised SPOT signal, Boehringer light units (BLU); mean over the file's lines of this peptide: 160

B39: 73-86 Homeobox-domain containing transcription fractor which is a positive regulator of PHO5 and other genes. (peptide)
chain: DSGPQRPKRTRAKG
normalised SPOT signal, Boehringer light units (BLU); mean over the file's lines of this peptide: 202

B40: 448-461 " involved in bud formation, has SH3 domain" (peptide)
chain: YPSPAQPPKSPLLN
normalised SPOT signal, Boehringer light units (BLU); mean over the file's lines of this peptide: 128

B41: 228-241 Hypothetical ORF (peptide)
chain: YTLPLLPGKGGFRI
normalised SPOT signal, Boehringer light units (BLU); mean over the file's lines of this peptide: 509

B42: 125-138 Hypothetical ORF (peptide)
chain: YILPKNPFRVPSEM
normalised SPOT signal, Boehringer light units (BLU); mean over the file's lines of this peptide: 290

B43: 507-520 involved in cell wall biogenesis (peptide)
chain: YKIPVVPPRETYFA
normalised SPOT signal, Boehringer light units (BLU); mean over the file's lines of this peptide: 195

B44: 350-363 Hypothetical ORF (peptide)
chain: DESPIDPSKAPKVP
normalised SPOT signal, Boehringer light units (BLU); mean over the file's lines of this peptide: 96.8

B45: 11-24 nuclear pore protein (peptide)
chain: ATVPSAPYRKQIIS
normalised SPOT signal, Boehringer light units (BLU); mean over the file's lines of this peptide: 122

B46: 315-328 invertase (sucrose hydrolyzing enzyme) (peptide)
chain: AFVPTNPWRSSMSL
normalised SPOT signal, Boehringer light units (BLU); mean over the file's lines of this peptide: 620

B47: 70-83 Hypothetical ORF (peptide)
chain: VTLPISPSRASISF
normalised SPOT signal, Boehringer light units (BLU); mean over the file's lines of this peptide: 120

B48: 91-104 Hypothetical ORF (peptide)
chain: AIEPGVPSRYSDET
normalised SPOT signal, Boehringer light units (BLU); mean over the file's lines of this peptide: 125

B49: 384-397 Hypothetical ORF (peptide)
chain: AVDPENPKKLASKF
normalised SPOT signal, Boehringer light units (BLU); mean over the file's lines of this peptide: 83.2

B50: 82-95 50-kDa subunit of ORC (peptide)
chain: DSIPLEPKKAKHLM
normalised SPOT signal, Boehringer light units (BLU); mean over the file's lines of this peptide: 133

B51: 90-103 uridine permease (peptide)
chain: DHKPENPIRTFKDL
normalised SPOT signal, Boehringer light units (BLU); mean over the file's lines of this peptide: 168

B52: 250-263 Hypothetical ORF (peptide)
chain: SREPEVPQRLLTLI
normalised SPOT signal, Boehringer light units (BLU); mean over the file's lines of this peptide: 105

B53: 186-199 Hypothetical ORF (peptide)
chain: DLPPKFPEKPVHLV
normalised SPOT signal, Boehringer light units (BLU); mean over the file's lines of this peptide: 65.8

B54: 222-235 " 2,3-oxidosqualene-lanosterol cyclase" (peptide)
chain: YSLPMHPGRWWVHT
normalised SPOT signal, Boehringer light units (BLU); mean over the file's lines of this peptide: 453

B55: 629-642 MCM3 protein homolog (S. cerevisiae) (peptide)
chain: DFTPVEPSKMREYI
normalised SPOT signal, Boehringer light units (BLU); mean over the file's lines of this peptide: 91

B56: 165-178 Hypothetical ORF (peptide)
chain: SGFPLLPSKRGVTA
normalised SPOT signal, Boehringer light units (BLU); mean over the file's lines of this peptide: 644

B57: 84-97 component of peroxisomal import machinery (peptide)
chain: AMPPTLPHRDWKDY
normalised SPOT signal, Boehringer light units (BLU); mean over the file's lines of this peptide: 321

B58: 216-229 acetyl CoA hydrolase (peptide)
chain: DSIPVDPEKVVAIV
normalised SPOT signal, Boehringer light units (BLU); mean over the file's lines of this peptide: 91

B59: 526-539 heat shock transcription factor (peptide)
chain: AGSPIRPYKQRYLL
normalised SPOT signal, Boehringer light units (BLU); mean over the file's lines of this peptide: 86.2
